Laboratory results taken from article PMC6804851, “Mechanism of floral scent production in Osmanthus fragrans and the production and regulation of its key floral constituents, β-ionone and linalool”.

B1: OC1 probe (OfCCD4 promoter, CAACA element) (dsDNA)
DNA 1: AAAGAAAAAAGGACAACAACAGTGGATAATTTGA
DNA 2: TCAAATTATCCACTGTTGTTGTCCTTTTTTCTTT
B2: OC1 unlabeled competitor (dsDNA)
DNA 1: AAAGAAAAAAGGACAACAACAGTGGATAATTTGA
DNA 2: TCAAATTATCCACTGTTGTTGTCCTTTTTTCTTT

Key:
OfERF61 [1] = target: T1, OfERF61 (Osmanthus fragrans, UniProt A0A5P8PES4 1-303); test: EMSA; 0, 2, 4, 8 ug ERF61; complex increases with protein; LightShift Chemiluminescent EMSA Kit (Thermo Fisher), manufacturer's instructions; buffer, salt, pH and temperature not stated; conditions: protein: recombinant; tags: pET-30a vector tags (not given); label: 3' biotin (sense strand); blunt
T1 sequence (A0A5P8PES4 entry or part of it): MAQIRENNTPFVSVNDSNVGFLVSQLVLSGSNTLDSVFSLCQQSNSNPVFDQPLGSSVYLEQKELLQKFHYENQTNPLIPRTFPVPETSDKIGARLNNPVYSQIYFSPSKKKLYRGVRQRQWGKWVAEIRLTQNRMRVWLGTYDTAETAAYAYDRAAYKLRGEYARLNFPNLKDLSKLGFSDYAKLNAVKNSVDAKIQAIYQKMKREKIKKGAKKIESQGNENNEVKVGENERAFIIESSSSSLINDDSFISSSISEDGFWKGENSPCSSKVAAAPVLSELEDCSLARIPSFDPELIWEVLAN

OfERF61 [2] = target: T1, OfERF61; test: competition; labeled OC1 probe; signal reduced at 20-fold, not detected at 200-fold excess; LightShift Chemiluminescent EMSA Kit (Thermo Fisher), manufacturer's instructions; buffer, salt, pH and temperature not stated; conditions: protein: recombinant; tags: pET-30a vector tags (not given); label: none; blunt

Binder | binding result (OfERF61 [1]) | binding result (OfERF61 [2])
B1 | binds | –
B2 | – | binds
